Data on 25 molecules can be found in PMC2582146 (Biochemistry, 2008).

No end group written: not given here.

T1: NHERF1 PDZ1 domain (human, UniProt O14745 1-139)
T1 sequence (looked up): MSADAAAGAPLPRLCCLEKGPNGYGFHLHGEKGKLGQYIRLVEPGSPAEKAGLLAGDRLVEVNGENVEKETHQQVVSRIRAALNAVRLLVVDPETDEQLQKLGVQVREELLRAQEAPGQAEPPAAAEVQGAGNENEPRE

B1: C-CFTR4 (peptide)
peptide: CDTRL
B2: F*-CFTR10 (peptide)
peptide: fluorescein-TEEEVQDTRL
B3: F*C-CFTR4 (peptide)
peptide: C(fluorescein‑5‑maleimide)DTRL
B4: F*GG-CFTR16 (peptide)
peptide: fluorescein-GGAALKEETEEEVQDTRL
B5: C-CFTR10 (peptide)
peptide: CTEEEVQDTRL
B6: C-CFTR6 (peptide)
peptide: CVQDTRL
B7: CGG-CFTR16 (peptide)
peptide: CGGAALKEETEEEVQDTRL
B8: CFTR10 (peptide)
peptide: TEEEVQDTRL
B9: C-ClC3B10 (peptide)
peptide: CEVYLLNSTTL
B10: C-β1AR10 (peptide)
peptide: CRPGFASESKV
B11: C-SSR5_(10) (peptide)
peptide: CANGLMQTSKL
B12: C-AIC3A10 (peptide)
peptide: CHRTCYLVTQL
B13: C-FRZ5_(10) (peptide)
peptide: CYHKQVSLSHV
B14: C-NLG10 (peptide)
peptide: CHPHSHSTTRV
B15: C-GluRδ2_(10) (peptide)
peptide: CGNDPDRGTSI
B16: C-CL1_(10) (peptide)
peptide: CDGQMQLVTSL
B17: C-GluRδ1_(10) (peptide)
peptide: CALDTSHGTSI
B18: C-FRZ8_(10) (peptide)
peptide: CYPKQMPLSQV
B19: C-βCAT10 (peptide)
peptide: CNQLAWFDTDL
B20: C-SDK2_(10) (peptide)
peptide: CAPIAGFSSFV
B21: C-RTKN10 (peptide)
peptide: CQPRTWLQSPV
B22: C-NR2A10 (peptide)
peptide: CKKMPSIESDV
B23: C-NLG2_(10) (peptide)
peptide: CLPHPHSTTRV
B24: CFTR C-terminal undecamer peptide on the HUMLIB array (peptide, UniProt P13569 1470-1480, looked up)
peptide: ETEEEVQDTRL
B25: SSR5 C-terminal undecamer peptide on the HUMLIB array (peptide, UniProt P35346 354-364, looked up)
peptide: AANGLMQTSKL

One experiment deals with T1, NHERF1 PDZ1 domain. The experiment is described as follows: fluorescence polarisation.
B1 yielded a Ki of 0.949 µM.

In another experiment the target is T1, NHERF1 PDZ1 domain. The experiment is described as follows: fluorescence polarisation. This is another data set of the same source. Background: In fluorescence polarisation assays a small probe gives low polarisation when free and higher when bound to something large.
Regarding B2, the Kd was 0.279 ± 0.021 µM. With B3, the dissociation constant Kd was found to be 0.949 ± 0.089 µM. Against the preceding molecule, the Kd is about 3.4-fold higher. With B4, the Kd is 0.116 ± 0.01 µM.

The target in the next experiment is T1, NHERF1 PDZ1 domain. The experiment is described as follows: SPR.
As for B5, the Kd is 0.0103 µM.

The next experiment deals with T1, NHERF1 PDZ1 domain. The experiment is described as follows: fluorescence polarisation. This is another data set of the same source.
Regarding B1, the Ki was found to be 1.52 ± 0.078 µM. B6 came in with a Ki of 0.67 ± 0.097 µM. Still for that read-out and setting: next, B7: 0.209 ± 0.064 µM; B5: 0.597 ± 0.077 µM.

For a further experiment, the target named is T1, NHERF1 PDZ1 domain. The experiment is described as follows: ITC. A general note: ITC needs no label: the signal is the heat of the interaction.
Turning to B8, binding was characterised by a dissociation constant (Kd) of 0.787 ± 0.055 µM, the dH is -10.4 ± 0.19 kcal/mol and the “dH extrapolated to 37 °C” value was -12.2 kcal/mol.

For a further experiment, the target named is T2, CAL PDZ domain (UniProt Q9HD26-2 278-362). The experiment is described as follows: fluorescence polarisation.
In turn, B9 registered an inhibitory constant (Ki) of 110 ± 60 µM. The same measure, in the same setting: next, B10: 410 ± 190 µM. On the same count and under the same terms, as for B11, the figure is 22.6 ± 7.1 µM.

Another experiment addresses T2, CAL PDZ domain. The experiment is described as follows: fluorescence polarisation. This is another data set of the same source.
B12 came in with a Ki of 42.2 ± 4.2 µM.

Turning to B9, affinity was put at a Ki of 93 ± 8.5 µM.

B10: the affinity corresponds to a Ki of 510 ± 110 µM. On the same count and under the same terms, as for B13, the figure is 451 ± 42 µM; as for B14, 158 ± 19 µM; as for B15, 560 ± 130 µM. Still for that read-out and setting: next, B11: 37.6 ± 4 µM; B16: 88.3 ± 6.3 µM. For B17, the Ki worked out at 875 ± 56 µM. The molecule B18 had a Ki of 47 ± 10 µM. For the molecule B19, affinity was put at a Ki of 1110 ± 480 µM. The same measure, in the same setting: next, B20: 150 ± 20 µM. On to B21, for which affinity was put at a Ki of 229 ± 16 µM. Same read-out and setting: next, B22: 1940 ± 920 µM; B5: 690 ± 120 µM; B23: 107 ± 1.7 µM.

Another experiment addresses T1, NHERF1 PDZ1 domain. The experiment is described as follows: ITC. This is another data set of the same source.
As to B8, the dH was -9.11 kcal/mol.

Another experiment concerns the target T2, CAL PDZ domain. The experiment is described as follows: peptide or protein array.
In the case of B24, the binding result is reported as “binds”. Regarding B25, the binding result is given as “binds”.

What is called Ki is the equilibrium dissociation constant of an inhibitor or competing ligand from its target. A high value points to weaker binding. As a reminder, the Kd is a measure of binding affinity in units of concentration. Higher therefore signals a looser complex.
